This sample holds only a part of the variants without activity.

The labels stand for the following.
B1: TPR 5TU (parent)
chain: GGAUCUUCUCGAUCUAACAAAAAAGACAAAUCUGCCACAAAGCUUGAGAGCAUCUUCGGAUGCAGAGGCGGCAGCCUUCGGUGGCGCGAUAGCGCCAACGUUCUCAACUAUGACACGCAAAACGCGUGCUCCGUUGAAUGGAGUUUAUCAUG

The variants in this data set derive from B1. Description: polymerase ribozyme fitness, log enrichment relative to wild type (log ratio); higher = more active; in vitro selection for triplet polymerase activity. In outline: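 Each subunit of a heterodimeric triplet polymerase ribozyme was represented by a PCR-built, transcribed mutant library that underwent triplicate single-round in vitro selection with frozen incubation at −7 °C. Extended constructs were recovered by gel excision, streptavidin-bead capture and RT-PCR, and Illumina sequencing of input and output libraries kept genotypes with ≥10 input reads and ≥1 read per output. Fitness is the logarithm of genotype enrichment relative to wild-type enrichment, from inverse-variance-weighted replicate averages, with a logarithm base of 2.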
Consider U9G, for which the “polymerase ribozyme fitness (log ratio)” value was -2.82.

In the case of U9A G86A C93U G141C, the “polymerase ribozyme fitness (log ratio)” value is at most -4.2.

In the case of U9C A29U U31C U44A C75A C85A G141A, the “polymerase ribozyme fitness (log ratio)” value was at most -4.2.

On to U9A A12G C14U A23U A40C C76G G86C U90C C118A C131G, for which the “polymerase ribozyme fitness (log ratio)” value is at most -4.2.

Regarding C8U A28U G62U A113C, the “polymerase ribozyme fitness (log ratio)” value was at most -4.2.

Consider C8U U15G A49G G59A A60G G70A G86C C93U A106G U135C, for which the “polymerase ribozyme fitness (log ratio)” value is at most -4.2.

As to U9A U15A C93U C103G, the “polymerase ribozyme fitness (log ratio)” value is at most -4.2.

As to U9C A26G U55A A122U, the “polymerase ribozyme fitness (log ratio)” value is at most -4.2.

For the variant C8U G81U C95U, the “polymerase ribozyme fitness (log ratio)” value is at most -4.2.

On to C8G G11A A17U G71U G88U U127C U135G U148C A150C, for which the “polymerase ribozyme fitness (log ratio)” value was at most -4.2.

For U9C C38U A52U C75G G92U G94A G136U U144G, the “polymerase ribozyme fitness (log ratio)” value is at most -4.2.

In the case of C8G U55G C72U G84U G136A, the “polymerase ribozyme fitness (log ratio)” value is at most -4.2.

For C8U U82G C87A, the “polymerase ribozyme fitness (log ratio)” value was at most -4.2.

With C8U A52G C85A A119U U130G, the “polymerase ribozyme fitness (log ratio)” value is at most -4.2.

Consider U9G G92A C116U C125U U134C, for which the “polymerase ribozyme fitness (log ratio)” value was at most -4.2.

For C8U U9G C18G U33G U55A C95U C105U G112U C132U A147U, the “polymerase ribozyme fitness (log ratio)” value is at most -4.2.

On to U9A G34A C57A C85A A91U, for which the “polymerase ribozyme fitness (log ratio)” value was at most -4.2.

With U9G A20U G84A U102C A115G, the “polymerase ribozyme fitness (log ratio)” value is at most -4.2.

With C8U C38G G92U C95U C99U U104A U145G, the “polymerase ribozyme fitness (log ratio)” value is at most -4.2.

As for U9A A23C U31G A73U C93G A106G G117A G133A A150G, the “polymerase ribozyme fitness (log ratio)” value is at most -4.2.

For C10A A16U U33A A121U G141C, the “polymerase ribozyme fitness (log ratio)” value is -4.19.

Take U9C U44A G46C A47G C85U A121G: the “polymerase ribozyme fitness (log ratio)” value is at most -4.2.

For U9A C63U C69U C76U C93A A113U G136C, the “polymerase ribozyme fitness (log ratio)” value is at most -4.2.

As for U9A C85A U90C U104A U127G G140A, the “polymerase ribozyme fitness (log ratio)” value is at most -4.2.

Regarding U9A A20C A23U U31G A47C G50U G58A C85U A91C, the “polymerase ribozyme fitness (log ratio)” value was at most -4.2.

As for C10A A20G A23C A24U A26G C85G A91G G100U A115G, the “polymerase ribozyme fitness (log ratio)” value is at most -4.2.

As for U9G C51G G84A G141C, the “polymerase ribozyme fitness (log ratio)” value is at most -4.2.

Turning to U9G C27A C96A, the “polymerase ribozyme fitness (log ratio)” value is at most -4.2.

For the variant C8U G25C U82A C87A, the “polymerase ribozyme fitness (log ratio)” value is at most -4.2.

For the variant U9G A16U A64U C85G U135C U144G A150U, the “polymerase ribozyme fitness (log ratio)” value was at most -4.2.

In the case of U9A A19C A41C C57U C96U, the “polymerase ribozyme fitness (log ratio)” value is at most -4.2.

For U9A C43A A147U U151G, the “polymerase ribozyme fitness (log ratio)” value was at most -4.2.

On to C8G U13C A16G A52G G83A U101G G126A, for which the “polymerase ribozyme fitness (log ratio)” value was at most -4.2.

For the variant U9G C54G G62A C75A G81C C93G C96A C103G C118U, the “polymerase ribozyme fitness (log ratio)” value was at most -4.2.

Regarding U9A G128C U139A, the “polymerase ribozyme fitness (log ratio)” value was at most -4.2.

Take U9A A23U U77A: the “polymerase ribozyme fitness (log ratio)” value was at most -4.2.

Turning to U9A A41G A91U C95A C96G U102G G133A U135C, the “polymerase ribozyme fitness (log ratio)” value was at most -4.2.

Consider U9A A23G G68C C79U G94C C105G G143A, for which the “polymerase ribozyme fitness (log ratio)” value is at most -4.2.

C8U A29G A52G U56A U127G: the “polymerase ribozyme fitness (log ratio)” value is at most -4.2.

Turning to U9G G46C C76A C85G U90G A121U, the “polymerase ribozyme fitness (log ratio)” value is at most -4.2.

For the variant U9G U31G G42U U53A G58C, the “polymerase ribozyme fitness (log ratio)” value is at most -4.2.

Turning to C8G G94A C103U G128C U134A, the “polymerase ribozyme fitness (log ratio)” value is at most -4.2.

On to C8G G83A A97U U127A, for which the “polymerase ribozyme fitness (log ratio)” value is at most -4.2.

Consider U9G A12C A16U U31A G62A G71A G80C C87U C108U, for which the “polymerase ribozyme fitness (log ratio)” value was at most -4.2.

For the variant C10A A20G A41G G46A A47C C57U C85G G133U, the “polymerase ribozyme fitness (log ratio)” value is at most -4.2.

C8U A28G G34A C36U G86U A91G A110U: the “polymerase ribozyme fitness (log ratio)” value was -4.19.

For the variant U9G A20C A29U C35U A47C C54U U56A C96A U130G, the “polymerase ribozyme fitness (log ratio)” value was at most -4.2.

Consider C8U A19C A40G C57U G92U G140A U146A, for which the “polymerase ribozyme fitness (log ratio)” value is at most -4.2.

As for C8U C43G A47U A64G G70A C79G C99G U135C G136C U145A, the “polymerase ribozyme fitness (log ratio)” value is at most -4.2.

For U9C A30U C35A U82A A91U C93A G140U G143A U151G, the “polymerase ribozyme fitness (log ratio)” value was at most -4.2.

For C8G G84U G100U C132U U144A, the “polymerase ribozyme fitness (log ratio)” value was at most -4.2.

As to C8G U13C A17U A29U C38U U44A G84U C87G G92A G140A, the “polymerase ribozyme fitness (log ratio)” value was at most -4.2.

As to U9A G50A G94U, the “polymerase ribozyme fitness (log ratio)” value is at most -4.2.

With C8U C27G A40G U78G C85G A98C A150G, the “polymerase ribozyme fitness (log ratio)” value is at most -4.2.

As to C8U A30U U44A A97G U101G A113G C132U C149G A150U, the “polymerase ribozyme fitness (log ratio)” value was at most -4.2.

Turning to U9A C14U A49U C51U G86U A89U, the “polymerase ribozyme fitness (log ratio)” value is at most -4.2.

For the variant U9G C10A C18U A66U G81U C96U, the “polymerase ribozyme fitness (log ratio)” value was at most -4.2.

For the variant C8U A20G, the “polymerase ribozyme fitness (log ratio)” value is -3.94.

U9G C85A: the “polymerase ribozyme fitness (log ratio)” value was -3.76.

On to C8G C54U G59C G81U C96A U144C, for which the “polymerase ribozyme fitness (log ratio)” value is at most -4.2.

As to U9A U31G U53G G88A G126U A150C, the “polymerase ribozyme fitness (log ratio)” value was at most -4.2.

For the variant U9A G11A C14U A19G C76A U82G C103A C116U, the “polymerase ribozyme fitness (log ratio)” value is at most -4.2.

With U9G A21C C35U C85G, the “polymerase ribozyme fitness (log ratio)” value was at most -4.2.

U9G A23U G34C C57A C93A: the “polymerase ribozyme fitness (log ratio)” value is at most -4.2.

For the variant C8G U13G C116G, the “polymerase ribozyme fitness (log ratio)” value was -3.71.

Consider C8G U82A C85A A91U C96U G117C, for which the “polymerase ribozyme fitness (log ratio)” value was at most -4.2.

Take C8U U55A: the “polymerase ribozyme fitness (log ratio)” value was -2.51.

Regarding C8G C93U, the “polymerase ribozyme fitness (log ratio)” value is -3.64.

In the case of U9A A22G G34A A106G C116U A120U, the “polymerase ribozyme fitness (log ratio)” value is at most -4.2.

As for U9A A23C C35G C75U G92U C95G U127A, the “polymerase ribozyme fitness (log ratio)” value is at most -4.2.

For the variant C8U C35A C72U C76U G88A G92U A121U, the “polymerase ribozyme fitness (log ratio)” value was at most -4.2.

As to C8U C79G G84A G94C G136C A138G A150G, the “polymerase ribozyme fitness (log ratio)” value was at most -4.2.

For C8U A19C G50A C96U, the “polymerase ribozyme fitness (log ratio)” value is at most -4.2.

In the case of C8G C35U A40U C95U C149A, the “polymerase ribozyme fitness (log ratio)” value was at most -4.2.

Take U9C A23U A24G C38G A89G A91U: the “polymerase ribozyme fitness (log ratio)” value is at most -4.2.

Consider U9G A73U C87U U102A C105G C108A, for which the “polymerase ribozyme fitness (log ratio)” value is at most -4.2.

Consider U9C A22U U53G C79U, for which the “polymerase ribozyme fitness (log ratio)” value is at most -4.2.

Take U9G G25C A47G C87A G92U C114A: the “polymerase ribozyme fitness (log ratio)” value is at most -4.2.

On to U9G U15C C87G A113G A142G, for which the “polymerase ribozyme fitness (log ratio)” value was at most -4.2.

Regarding U9A U55A C85U G94A C114U G140C, the “polymerase ribozyme fitness (log ratio)” value is at most -4.2.

On to C8U G92U, for which the “polymerase ribozyme fitness (log ratio)” value is -3.35.

For C8U C123G, the “polymerase ribozyme fitness (log ratio)” value was -3.42.

Regarding U9A U15C G48A G50C C96A G133C, the “polymerase ribozyme fitness (log ratio)” value was at most -4.2.

The values above are taken from the RNAGym collection of RNA variant scans (doi:10.1073/pnas.2313332121).
